US20160289684

Tests used:
[1] = biological target: T1, GST fusion protein containing the NFAT2 phosphorylation site S324 flanked with 9-11 amino acids (UniProt O95644)
T1 sequence: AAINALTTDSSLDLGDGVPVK

[2] = biological target: T2, GST fusion protein containing the N-terminal regulatory domain (amino acids 1-319) of NFAT2 (UniProt O95644)
T2 sequence: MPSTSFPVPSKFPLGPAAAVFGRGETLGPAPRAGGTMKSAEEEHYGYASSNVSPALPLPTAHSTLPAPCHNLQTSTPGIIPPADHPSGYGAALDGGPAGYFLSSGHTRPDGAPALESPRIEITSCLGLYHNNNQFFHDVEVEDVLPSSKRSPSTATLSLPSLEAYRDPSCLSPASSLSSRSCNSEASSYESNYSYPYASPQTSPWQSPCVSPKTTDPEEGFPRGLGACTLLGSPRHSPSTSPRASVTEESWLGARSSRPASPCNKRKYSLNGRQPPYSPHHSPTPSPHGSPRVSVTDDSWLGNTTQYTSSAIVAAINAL

[3] = biological target: T3, GST fusion protein containing the NFAT2 phosphorylation site S161 flanked with 9-11 amino acids (UniProt O95644)
T3 sequence: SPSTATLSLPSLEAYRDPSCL

[4] = test system: T4, GST fusion protein carrying the SP3 motif of NFAT
T4 sequence: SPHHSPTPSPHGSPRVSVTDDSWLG

[5] = biological target: T5, GST fusion protein containing the NFAT2 phosphorylation site S151 flanked with 9-11 amino acids (UniProt O95644)
T5 sequence: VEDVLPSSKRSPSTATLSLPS

[6] = test system: T6, GST fusion protein carrying the SP2 motif of NFAT
T6 sequence: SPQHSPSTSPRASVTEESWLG

IKKε purified from 293T cells
in vitro kinase assay [1]: peptides containing three serines, except the peptides containing S^117, were phosphorylated by IKKε in vitro | in vitro kinase assay [2]: purified IKKε was sufficient to phosphorylate the N-terminal regulatory domain (amino acids 1-319) of NFAT2 by an in vitro kinase assay | in vitro kinase assay [3]: peptides containing three serines, except the peptides containing S^117, were phosphorylated by IKKε in vitro | in vitro kinase assay [4]: IKKε efficiently phosphorylated the SP3 motif | in vitro kinase assay [5]: peptides containing three serines, except the peptides containing S^117, were phosphorylated by IKKε in vitro | in vitro kinase assay [6]: weakly the SP2 site
